Residue numbers refer to the chain shown, from its start.
T1: human HIDE1-flag (human, UniProt A8MVS5 20-230)
T1 construct: Over-expressed on HEK293, SK-MEL-5, CHO-S and CHO-S OKT3 cells (pMSCV or pcDNA3.1); whole cell extracts in WB; Entry includes the signal peptide; also called hHIDE1 Flag
T1 sequence: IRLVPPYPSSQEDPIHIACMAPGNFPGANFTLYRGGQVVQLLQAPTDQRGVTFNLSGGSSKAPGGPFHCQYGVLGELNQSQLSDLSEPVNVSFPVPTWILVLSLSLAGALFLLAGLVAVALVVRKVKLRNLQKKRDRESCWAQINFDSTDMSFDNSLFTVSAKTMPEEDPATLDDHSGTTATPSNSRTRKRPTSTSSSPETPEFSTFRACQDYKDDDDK

T2: human HIDE1 (human, UniProt A8MVS5 20-230)
T2 construct: Endogenous on U937, HL-60, THP-1 cells, blood monocytes, AML blasts and dendritic cells; also called C19orf38; hHIDE1
T2 sequence: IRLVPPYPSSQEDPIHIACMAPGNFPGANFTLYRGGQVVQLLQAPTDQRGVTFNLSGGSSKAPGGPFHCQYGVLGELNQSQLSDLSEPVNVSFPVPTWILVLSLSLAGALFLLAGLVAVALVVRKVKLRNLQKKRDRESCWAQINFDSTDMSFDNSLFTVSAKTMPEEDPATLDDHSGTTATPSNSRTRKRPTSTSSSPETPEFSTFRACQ

T3: mouse HIDE1 (mouse, UniProt Q75VT8 22-222)
T3 construct: Endogenous on EL4, YAC-1, J774A.1/J774A.2 cells; also called AB124611; mHIDE1
T3 sequence: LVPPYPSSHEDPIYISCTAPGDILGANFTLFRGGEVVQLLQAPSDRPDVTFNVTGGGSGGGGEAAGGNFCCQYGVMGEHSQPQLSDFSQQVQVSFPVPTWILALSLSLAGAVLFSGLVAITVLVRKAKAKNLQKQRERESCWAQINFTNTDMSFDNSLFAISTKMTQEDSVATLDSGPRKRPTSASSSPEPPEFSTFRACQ

B1: αhHIDE1_AbD25753_hIgG1_Ser_mAb (antibody, V domains shown)
VH: EVQLVQSGAEVKKPGESLKISCKGSGYSFTNYWIHWVRQMPGKGLEWMGIIDPGNSFTRYSPSFQGQVTISADKSISTAYLQWSSLKASDTAMYYCARGDGLYGGSDGYSMGGFDNWGQGTLVTVSS
VL: DIQMTQSPSSLSASVGDRVTITCRASQTIWNYLAWYQQKPGKAPKLLIYDASNLQSGVPSRFSGSGSGTDFTLTISSLQPEDFATYYCQQYSHFPHTFGQGTKVEIK
B2: αhHIDE1_AbD25760_hIgG1_Ser_mAb (antibody, V domains shown)
VH: QVQLVQSGAEVKKPGSSVKVSCKASGGTFSDYAINWVRQAPGQGLEWMGGIIPNFGTANYAQKFQGRVTITADESTSTAYMELSSLRSEDTAVYYCARGMRSLGGLSYYFDLWGQGTLVTVSS
VL: B1 VL with T28S, W30N, N31S, A34N, D50A, N53S, S92I, F94Y, H96I
notes: also called AB-510; Ab-510
B3: αhHIDE1_AbD25754_hIgG1_Ser_mAb (antibody, V domains shown)
VH: QVQLVQSGAEVKKPGASVKVSCKASGYTFSGYGMHWVRQAPGQGLEWMGIISPSNGNTNYAQKFQGRVTMTRDTSISTAYMELSRLRSEDTAVYYCAREVYYGLDVWGQGTLVTVSS
VL: DIQMTQSPSSLSASVGDRVTITCRASQSISSWLNWYQQKPGKAPQLLIYGASSLQSGVPSRFSGSGSGTDFTLTISSLQPEDFATYYCQQYISIPITFGQGTKVEIK
B4: αhHIDE1_AbD25755_hIgG1_Ser_mAb (antibody, V domains shown)
VH: QVQLVQSGAEVKKPGSSVKVSCKASGGTFSSYAISWVRQAPGQGLEWMGGIVPKFGTAYYAQKFQGRVTITADESTSTAYMELSSLRSEDTAVYYCARENLVYSAIAIWGQGTLVTVSS
VL: B3 VL with S28D, S31N, Q45K, Y91V, I92T, I94T, I96F
B5: CPA.12.012 human IgG4 (antibody, V domains shown)
VH: QVQLVESGGGVVQPGRSLRLSCAASGFTFSSYAMHWVRQAPGKGLEWVAVISYDGSNKYYADSVKGRFTISRDNSKNTLYLQMNSLRAEDTAVYYCARSSGSSWSNIAYWGQGTLVTVSS
VL: QSVLTQPPSVSGAPGQRVTISCIGSSSNIGAGYDVHWYRQLPGTAPKLLIYDNTNRPSGVPDRFSASKSGISASLAITGLQAEDEADYYCQSYDSNLSGVFGGGTQLTVLG
notes: also called CPA.12.012-H4; CPA.12.0012-H4
B6: CPA.12.007 human IgG4 (antibody, V domains shown)
VH: EVQLVESGGGVVQPGESLRLSCAASGFTFSSYGFHWVRQSPGEGLEWLAVISYDGTSKSYADSVKGRFTVSRDNSKETLYLQLSSLRREDTALYYCARDTWGYYYGMDVWGQGTTVTVSS
VL: DIQMTQSPSFLSGSVGDRVSISCRASQDIRSHLAWYQRKPGEAPKLLIYTASSLQGGVPLRFSGSGSGTEFTLTISSLQPEDSATYYCQHLHLYPLTFGGGTKLEIKR
notes: also called CPA.12.007-H4
B7: CPA.12.008 human IgG4 (antibody, V domains shown)
VH: QVQLQESGPGLVTPSETLSLTCTVSGGSISSVSYYWGWVRQPPGKGLEWIGSIYYSGTTAHNPSLKSRVTMAVDTSKNQFSLSLSSVTAADTAVYFCARGWRYYEDYYFDHWGQGTLVTVSS
VL: AIRMTQSPSSLSASVGDRVTITCQASQDISNYLNWYQQKPGKAPKSLIYAASSLQSGVPSKFSGSGSGTDFTLTISSLQPEDFATYYCQQYYSYPLTFGGGTKVEIKR
notes: also called CPA.12.008-H4
B8: CPA.12.009 human IgG4 (antibody, V domains shown)
VH: QMQLVQSGAEVKKPGASVKVSCKASGYTFTTHAFSWVRQAPGLGLEWMGWISTYNGNTKYEQKFQGRVTLTTDSSTNTAYMELRSLRSDDTAVYYCVRDSRAFDVWGQGTMVTVSS
VL: DIQLTQSPSFLSASVGDRVTITCRASQGINSYLAWYQQKPGAAPKLLIYAASTLQSGVPSRFSGSGSGTEFTLTISSLQPEDFATYYCQQLNTYPLIFGQGTRLEIKR
notes: also called CPA.12.009-H4
B9: CPA.12.013 human IgG4 (antibody, V domains shown)
VH: EVQLVETGGGLIQPGRSLRLSCVASDFRFSNHAMHWVRQAPGKELEWVAVISSDGSNRQYAYSVKGRFTISRDNSKNTLYLEMNILGPEDTAVYFCVRSHLGPEWYYGMDVWGQGTTVTVSS
VL: DIQMTQSPSSLSASVGDRVTITCQASHDIRKFLNWYQQHPGKAPKLLIYDAAYSEIGVPSRFSGGGSGTDFTFTINNLQPDDFATYYCQQYESLPFTFGPGTKVDIKR
notes: also called CPA.12.013-H4
B10: CPA.12.014 human IgG4 (antibody, V domains shown)
VH: QVTLKESGPALVTPTQNLTLTCTVSGGSISSSSYYWGWIRQPPGKGLEWIGSIYYSGSTYYNPSLKSRVTISVDTSKNQFSLKLSSVTAADTAVYYCARRRNSSGWFYFDYWGQGTLVTVSS
VL: QSVLTQPPSVSGAPRQRVTISCSGSRSNIGDNAVNWYQHPPGKAPKLLIYYDDLLPSGVSDRFSGSKSGTSASLAISGLQSEDEADYYCATWDDSLNGHVFGTGTKLTVLG
notes: also called CPA.12.014-H4
B11: CPA.12.006 human IgG4 (antibody, V domains shown)
VH: EVQLVESGGGVVQPGRSLRLSCAASGFTFSSFAMHWVRQAPGKGPEWLGIILYEGGHVVYADSVRGRLTISRDNSKNTLYLQMDSLRDEDTAVYYCAKGFYHAFDVWGQGTMVTVSS
VL: QAVLTQPASLSASPGASASLTCTLRSGINVGTYRIYWYQQKPGSPPQYLLRYKSDSDKQQGSGVPSRFSGSKDASANAGILLISGLQSEDEADYYCMIWHSSAWVFGGGTQLTVLG
notes: also called CPA.12.006-H4
B12: CPA.12.015 human IgG4 (antibody, V domains shown)
VH: QVQLQESGPGLVKPSETLSLTCTVSGGSISSSSYYWGWIRQPPGKGLEWIGSIYYSGSTHYNPSLKSRVTISVDTSKNQFSLKLSSVTAADTAVYYCARVYYGSGTGGAFDIWGQGTMVTVSS
VL: QSVLTQPPSVSGAPGQRVTISCTGSSSNIGAAYDVHWYQQLPGTAPKLLIYGDTIRPSGVPDRFSGSKSGTSASLAITGLQAEDEADYYCQSYDSSLSGSWVFGGGTQLTVLG
notes: also called CPA.12.015-H4

target: T1, human HIDE1-flag; experiment: FACS titration on CHO-S cells over-expressing human HIDE1 Flag (curves in FIG. 96A)
Protocol: (§1) FIG. 96: Affinity measurements using FACS application for the anti-human HIDE1 reformatted Fab's on CHO-S cells over-expressing human HIDE1 Flag protein. (A)CHO-S cells over-expressing the human HIDE1 Flag (circle dots) or HEK293 transduced with empty vector (square dots) were analyzed by FACS using Serotec anti-Human HIDE1 reformatted antibodies (1-5) in 7 concentrations-series dilution 1:3, 10-0.01 μg/ml. Detection was carried out using Goat Anti Human-PE secondary Ab. (B) Summary table of Serotec anti-human HIDE1 reformatted antibodies 1-5 FACS analysis, the Geo mean ratio of HEK293 cells over-expressing the human HIDE1 Flag/HEK293 transduced with empty vector and the cross reactive validation, the Geo-mean ratio of HEK293 cells over-expressing the mouse/cyno HIDE1 Flag/HEK293 transduced/transfected with empty vector. And Kd (nM) for each reformatted Fab.
The affinity The affinity measurements of the reformatted Serotec's Ab's (full hIgG1 Abs) against human HIDE1, using FACS application were tested using CHO-S cell over-expressing human HIDE1. CHO-S cells transduced with an empty vector were used as a negative control.
As shown in FIG. 96. the binding of 5 out of 5 anti-human HIDE1 reformatted Ab's (1-5) to the CHO-S cells over-expressing human HIDE1 Flag protein (circle dots) is higher than the binding of these reformatted Ab's to the empty vector cells (square dots). Two of the five antibodies (2 and 3) reaches saturation at the concentrations that were measured. The Kd value and R square are represented in the figure.

Row | Binder | Kd
1 | B1 | 10.8 nM
2 | B2 | 96.7 nM
3 | B3 | 9.85 nM
4 | B4 | 45.4 nM

target: T2, human HIDE1; experiment: FACS titration on 293T-huHIDE1 cells, human IgG4 (preliminary FACS KD)
Protocol: (§2) FACS screening of reformatted IgG4 antibodies: The cell lines described in paragraph [001066] (“FACS screening of PPE”) were mixed with FACS buffer containing the purified anti-HIDE1 IgGs or isotype controls. […] Cells were washed again and fluorescence was detected using an Intellicyt HTFC screening system (Intellicyt). Data were analyzed using FCS Express (DeNovo) and plotted for affinity calculations (KD) in GraphPad Prism (GraphPad Software, Inc.). Note that each anti-HIDE1 antibody was tested over a titration range from 0-80 μg/mL.
(§3) Overview of FACS binding results for human IgG4 antibodies reformatted from Fab screening hits. […] IgGs from the same H-CDR3 family are indicated by the same color, either blue or green. CPA.12.003 & CPA.12.008 have identical heavy chain CDR-3 regions and minor differences in framework regions or other CDRs. The same holds for CPA.12.004 & CPA.12.013. N.B. not binding.

Row | Binder | Kd
5 | B5 | 1.3 nM
6 | B6 | 14 nM
7 | B7 | 1.3 nM
8 | B8 | 1.7 nM
9 | B9 | 2.6 nM
10 | B10 | 13 nM
11 | B11 | 2.5 nM
12 | B12 | 11 nM

target: T1, human HIDE1-flag; experiment: FACS, Geo mean ratio of HEK293 cells over-expressing human HIDE1 Flag to HEK293 empty vector, antibody 10 ug/ml
Protocol: as §1
The performance of the reformatted Serotec's antibodies against human HIDE1, in FACS application were tested using HEK293 cell over-expressing human HIDE1 Flag, mouse HIDE1 or cyno HIDE1. HEK293 cells transduced/transfected with an empty vector were used as a negative control

Row | Binder | rMFI OX/EV, 10ug/ml, hHIDE1
13 | B1 | 276
14 | B2 | 117
15 | B3 | 270
16 | B4 | 236

target: T3, mouse HIDE1; experiment: FACS on 293T-moHIDE1 cells, human IgG4
Protocol: as §2, §3

Row | Binder | binding result
17 | B5 | no binding (tested: titration 0-80 µg/mL)
18 | B6 | no binding (tested: titration 0-80 µg/mL)
19 | B7 | no binding (tested: titration 0-80 µg/mL)
20 | B8 | no binding (tested: titration 0-80 µg/mL)
21 | B9 | no binding (tested: titration 0-80 µg/mL)
22 | B10 | no binding (tested: titration 0-80 µg/mL)
23 | B11 | no binding (tested: titration 0-80 µg/mL)
24 | B12 | no binding (tested: titration 0-80 µg/mL)

— patent publication US20180305451A1 (COMPUGEN, published 2018)
